Source: article PMC5389526

T1: Cas1-Cas2 complex (native Cas1 + Cas2-His6) (Escherichia coli, UniProt Q46896;P45956 1-305;1-94)
T1 sequence 1: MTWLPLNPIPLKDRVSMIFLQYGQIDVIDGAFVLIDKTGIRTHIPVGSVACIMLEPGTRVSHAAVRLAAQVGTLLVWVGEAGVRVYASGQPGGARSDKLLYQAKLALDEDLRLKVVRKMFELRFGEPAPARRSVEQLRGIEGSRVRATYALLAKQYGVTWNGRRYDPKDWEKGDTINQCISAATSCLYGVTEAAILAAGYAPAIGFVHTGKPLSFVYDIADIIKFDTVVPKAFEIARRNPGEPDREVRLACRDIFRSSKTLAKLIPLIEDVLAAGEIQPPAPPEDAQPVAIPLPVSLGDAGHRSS
T1 sequence 2: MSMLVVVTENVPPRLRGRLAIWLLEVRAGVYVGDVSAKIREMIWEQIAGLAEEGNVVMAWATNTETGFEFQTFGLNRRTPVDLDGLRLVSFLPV


Target: T1, Cas1-Cas2 complex (native Cas1 + …)
Experiment: EMSA

| Binder | binding result |
| --- | --- |
| ATTTCAGCTACTCCGATGGCCCATATGCGGATT (ssDNA) [S1 oligonucleotide] | no binding |
| ATTTCAGCTACTCCGATGGCCCATATGCGGATC (ssDNA) [S2 oligonucleotide] | no binding |
